Test [1] concerns the target SARS-CoV-2 N protein truncation NΔN180, Myc-tagged (SARS-CoV-2) (UniProt P0DTC9). In words: cross-linking.
Test [2] concerns the target SARS-CoV-2 N protein truncation NΔN247, Myc-tagged (SARS-CoV-2) (UniProt P0DTC9). In words: cross-linking.

As usually defined, the stoichiometry N is the number of molecules, sites or subunits per partner or assembly.

Consider “SARS-CoV-2 N protein truncation NΔN180, Myc-tagged (from UniProt P0DTC9 181-419) (domain or fragment)”, for which, in test [1], the stoichiometry N came to 2. Substance “SARS-CoV-2 N protein truncation NΔN247, Myc-tagged (from UniProt P0DTC9 248-419) (domain or fragment)” registered a stoichiometry N in test [2] of 2.
